From patent US20220202704A1, “PHARMACEUTICAL PARENTERAL COMPOSITION OF DUAL GLP1/2 AGONIST” (Zealand Pharma A/S, priority 2019, published 2022)
*1 amine or outer side, *2 acyl side, *3 side chain or, on linkers, in order; H or OH if unused. Where no end group is shown, it is not given here. Side-chain parts run from the residue outwards. [ ]: non-standard residue; d: D form. The star is where a group is joined. C18 diacid = O=C(O)CCCCCCCCCCCCCCCCC(=O)*; γGlu = O=C(O)[C@H](CCC(=O)[*:2])N[*:1]; Aib = CC(C)(N)C(=O)O

Assay: Physical stability via ThT, fibril formation (ASSAY IVc)
Assay type: physicochemical
Design: key to Aggregation (fibrillation, ThT): FD = Fibrillation Detected; FND = Fibrillation Not Detected
Settings: for Aggregation (fibrillation, ThT): 40° C. 4 days
Protocol: Samples were prepared in a total volume of 0.5 mL API (herein e.g. CPD1) stock solutions were prepared by dissolving API in demineralised water at ambient temperature (typically 25° C.) to achieve 5 and 25 mg/mL API, respectively. 8 working solutions were prepared: 1) 40 mM phosphate pH 6 and 80 μM ThT; 2) 40 mM phosphate pH 6.5 and 80 μM ThT; 3) 40 mM phosphate pH 7 and 80 μM ThT; 4) 40 mM phosphate pH 8 and 80 μM ThT; 5) 40 mM phosphate pH 6, 540 mM mannitol and 80 μM ThT; 6) 40 mM phosphate pH 6.5, 540 mM mannitol and 80 μM ThT; 7) 40 mM phosphate pH 7, 540 mM mannitol and 80 μM ThT; and 8) 40 mM phosphate pH 8, 540 mM mannitol and 80 μM ThT.
200 μL of API stock was mixed with 250 μL working solution, pH was measured and adjusted to target, followed by adding demineralised water to a final volume of 500 μL. Samples were loaded in a 96-well black fluorescence plate (clear bottom) in triplicate 3×150 μL. Data were collected at fixed intervals of 10 min, each preceded by 300 s of automixing (agitation), over a period of 96 hours at 40° C. Physical stability, expressed as lag-time of fibril formation (in hours), was defined as the intersection between two linear regressions representing the initial stable phase and the growth phase.

Question: What does the source list for “CPD1: any form of the compound comprising SEQ ID NO: 1 (CPD1OH or CPD1NH2 and any pharmaceutically acceptable salt thereof) (H-H[Aib]EGSFTSELATILDK([γGlu-C18 diacid])QAARDFIAWLIQHKITD; also: C-terminal acid or amide, both forms, salts)”?
Answer: Aggregation (fibrillation, ThT) (2 mg/mL CPD1, 20 mM phosphate pH 6, 270 mM mannitol): FD; Aggregation (fibrillation, ThT) (2 mg/mL CPD1, 20 mM phosphate pH 6, no added tonicity agent): FD; Aggregation (fibrillation, ThT) (2 mg/mL CPD1, 20 mM phosphate pH 6.5, 270 mM mannitol): FND; Aggregation (fibrillation, ThT) (2 mg/mL CPD1, 20 mM phosphate pH 6.5, no added tonicity agent): FND; Aggregation (fibrillation, ThT) (2 mg/mL CPD1, 20 mM phosphate pH 7, 270 mM mannitol): FND; Aggregation (fibrillation, ThT) (2 mg/mL CPD1, 20 mM phosphate pH 7, no added tonicity agent): FND; Aggregation (fibrillation, ThT) (2 mg/mL CPD1, 20 mM phosphate pH 8, 270 mM mannitol): FND; Aggregation (fibrillation, ThT) (2 mg/mL CPD1, 20 mM phosphate pH 8, no added tonicity agent): FND; Aggregation (fibrillation, ThT) (10 mg/mL CPD1, 20 mM phosphate pH 6, 270 mM mannitol): FD; Aggregation (fibrillation, ThT) (10 mg/mL CPD1, 20 mM phosphate pH 6, no added tonicity agent): FD; Aggregation (fibrillation, ThT) (10 mg/mL CPD1, 20 mM phosphate pH 6.5, 270 mM mannitol): FND; Aggregation (fibrillation, ThT) (10 mg/mL CPD1, 20 mM phosphate pH 6.5, no added tonicity agent): FND; Aggregation (fibrillation, ThT) (10 mg/mL CPD1, 20 mM phosphate pH 7, 270 mM mannitol): FND; Aggregation (fibrillation, ThT) (10 mg/mL CPD1, 20 mM phosphate pH 7, no added tonicity agent): FND; Aggregation (fibrillation, ThT) (10 mg/mL CPD1, 20 mM phosphate pH 8, 270 mM mannitol): FND; Aggregation (fibrillation, ThT) (10 mg/mL CPD1, 20 mM phosphate pH 8, no added tonicity agent): FND; Amyloid formation / fibrillation (2 and 10 mg/mL CPD1, pH 6): amyloid formation was observed; Amyloid formation / fibrillation (2 and 10 mg/mL CPD1, pH 7 or 8): no fibrillation was observed; Aggregation propensity, mannitol as tonicity agent compared to control (no tonicity agent) (pH range 6-8, 40° C. 4 days): No difference
